Test system: PPIs identified as affected by the SH3 domain deletions
Assay: Liquid DHFR-PCA low-throughput validation of PPIs affected by SH3 deletion (Fig. S1D-E)
Type: cell-based, Saccharomyces cerevisiae
Conditions: label = prey, liquid DHFR-PCA, prey _1 = lost, _2 = gained in screen
Procedure, shortened: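 Yeast diploids from DHFR-PCA mating grown 48 h in synthetic complete MSG medium pH 6.0 with NAT and HPH, normalized to 1 OD and diluted to 0.1 OD in liquid PCA selection medium. Growth followed by OD every 15 min for 72 h at 30 °C.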

Molecule | Ratio (Deletedscore / WTscore) (bait BZZ1-2) | Ratio (Deletedscore / WTscore) (bait HSE1) | Ratio (Deletedscore / WTscore) (bait LSB3) | also measured
YBL039C_2 (protein, UniProt P28274 1-579, looked up) CTP synthase 1: MKYVVVSGGVISGIGKGVLASSTGMLMKTLGLKVTSIKIDPYMNIDAGTMSPLEHGECFVLDDGGETDLDLGNYERYLGVTLTKDHNITTGKIYSHVIAKERKGDYLGKTVQIVPHLTNAIQDWIERVAKIPVDDTGMEPDVCIIELGGTVGDIESAPFVEALRQFQFKVGKENFALIHVSLVPVIHGEQKTKPTQAAIKGLRSLGLVPDMIACRCSETLDKPTIDKIAMFCHVGPEQVVNVHDVNSTYHVPLLLLEQKMIDYLHARLKLDEISLTEEEKQRGLELLSKWKATTGNFDESMETVKIALVGKYTNLKDSYLSVIKALEHSSMKCRRKLDIKWVEATDLEPEAQESNKTKFHEAWNMVSTADGILIPGGFGVRGTEGMVLAARWARENHIPFLGVCLGLQIATIEFTRSVLGRKDSHSAEFYPDIDEKNHVVVFMPEIDKETMGGSMRLGLRPTFFQNETEWSQIKKLYGDVSEVHERHRHRYEINPKMVDELENNGLIFVGKDDTGKRCEILELKNHPYYIATQYHPEYTSKVLDPSKPFLGLVAASAGILQDVIEGKYDLEAGENKFNF | 1.633 | 1.248 | 1.147 | 
YHR064C_2 (protein, UniProt P38788 1-538, looked up) Ribosome-associated complex …: MSSPVIGITFGNTSSSIAYINPKNDVDVIANPDGERAIPSALSYVGEDEYHGGQALQQLIRNPKNTIINFRDFIGLPFDKCDVSKCANGAPAVEVDGKVGFVISRGEGKEEKLTVDEVVSRHLNRLKLAAEDYIGSAVKEAVLTVPTNFSEEQKTALKASAAKIGLQIVQFINEPSAALLAHAEQFPFEKDVNVVVADFGGIRSDAAVIAVRNGIFTILATAHDLSLGGDNLDTELVEYFASEFQKKYQANPRKNARSLAKLKANSSITKKTLSNATSATISIDSLADGFDYHASINRMRYELVANKVFAQFSSFVDSVIAKAELDPLDIDAVLLTGGVSFTPKLTTNLEYTLPESVEILGPQNKNASNNPNELAASGAALQARLISDYDADELAEALQPVIVNTPHLKKPIGLIGAKGEFHPVLLAETSFPVQKKLTLKQAKGDFLIGVYEGDHHIEEKTLEPIPKEENAEEDDESEWSDDEPEVVREKLYTLGTKLMELGIKNANGVEIIFNINKDGALRVTARDLKTGNAVKGEL | 1.071 |  |  | 
YDL225W_2 (protein, UniProt Q07657 2-551, looked up) Seventh homolog of septin 1: STASTPPINLFRRKKEHKRGITYTMLLCGPAGTGKTAFANNLLETKIFPHKYQYGKSNASISSNPEVKVIAPTKVVSFNSKNGIPSYVSEFDPMRANLEPGITITSTSLELGGNKDQGKPEMNEDDTVFFNLIMTHGIGENLDDSLCSEEVMSYLEQQFDIVLAEETRIKRNPRFEDTRVHVALYFIEPTGHGLREVDVELMKSISKYTNVLPIITRADSFTKEELTQFRKNIMFDVERYNVPIYKFEVDPEDDDLESMEENQALASLQPFAIITSDTRDSEGRYVREYPWGIISIDDDKISDLKVLKNVLFGSHLQEFKDTTQNLLYENYRSEKLSSVANAEEIGPNSTKRQSNAPSLSNFASLISTGQFNSSQTLANNLRADTPRNQVSGNFKENEYEDNGEHDSAENEQEMSPVRQLGREIKQENENLIRSIKTESSPKFLNSPDLPERTKLRNISETVPYVLRHERILARQQKLEELEAQSAKELQKRIQELERKAHELKLREKLINQNKLNGSSSSINSLQQSTRSQIKKNDTYTDLASIASGRD | 1.566 |  |  | Ratio (Deletedscore / WTscore) (bait HOF1): 1.663
YIL033C_2 (protein, UniProt P07278 2-416, looked up) cAMP-dependent protein kinase …: VSSLPKESQAELQLFQNEINAANPSDFLQFSANYFNKRLEQQRAFLKAREPEFKAKNIVLFPEPEESFSRPQSAQSQSRSRSSVMFKSPFVNEDPHSNVFKSGFNLDPHEQDTHQQAQEEQQHTREKTSTPPLPMHFNAQRRTSVSGETLQPNNFDDWTPDHYKEKSEQQLQRLEKSIRNNFLFNKLDSDSKRLVINCLEEKSVPKGATIIKQGDQGDYFYVVEKGTVDFYVNDNKVNSSGPGSSFGELALMYNSPRAATVVATSDCLLWALDRLTFRKILLGSSFKKRLMYDDLLKSMPVLKSLTTYDRAKLADALDTKIYQPGETIIREGDQGENFYLIEYGAVDVSKKGQGVINKLKDHDYFGEVALLNDLPRQATVTATKRTKVATLGKSGFQRLLGPAVDVLKLNDPTRH |  |  |  | Ratio (Deletedscore / WTscore) (bait CYK3): 1.015
YML035C_2 (protein, UniProt P15274 1-810, looked up) AMP deaminase: MDNQATQRLNDLSLEPAPSHDEQDGSGLVIDIDQRKIGDEQAGVVVDDETPPLEQQDSHESLAADSRNANFSYHENQQLLENGTKQLALDEHDSHSAILEQPSHSTNCSSSNIAAMNKGHDSADHASQNSGGKPRTLSASAQHILPETLKSFAGAPVVNKQVRTSASYKMGMLADDASQQFLDDPSSELIDLYSKVAECRNLRAKYQTISVQNDDQNPKNKPGWVVYPPPPKPSYNSDTKTVVPVTNKPDAEVFDFTKCEIPGEDPDWEFTLNDDDSYVVHRSGKTDELIAQIPTLRDYYLDLEKMISISSDGPAKSFAYRRLQYLEARWNLYYLLNEYQETSVSKRNPHRDFYNVRKVDTHVHHSACMNQKHLLRFIKHKLRHSKDEKVIFRDGKLLTLDEVFRSLHLTGYDLSIDTLDMHAHKDTFHRFDKFNLKYNPIGESRLREIFLKTNNYIKGTYLADITKQVIFDLENSKYQNCEYRISVYGRSLDEWDKLASWVIDNKVISHNVRWLVQIPRLYDIYKKTGIVQSFQDICKNLFQPLFEVTKNPQSHPKLHVFLQRVIGFDSVDDESKVDRRFHRKYPKPSLWEAPQNPPYSYYLYYLYSNVASLNQWRAKRGFNTLVLRPHCGEAGDPEHLVSAYLLAHGISHGILLRKVPFVQYLYYLDQVGIAMSPLSNNALFLTYDKNPFPRYFKRGLNVSLSTDDPLQFSYTREPLIEEYSVAAQIYKLSNVDMCELARNSVLQSGWEAQIKKHWIGKDFDKSGVEGNDVVRTNVPDIRINYRYDTLSTELELVNHFANFKRTIEEK |  | 1.186 | 1.062 | 
YNL229C_2 (protein, UniProt P23202 2-354, looked up) Transcriptional regulator URE2: MNNNGNQVSNLSNALRQVNIGNRNSNTTTDQSNINFEFSTGVNNNNNNNSSSNNNNVQNNNSGRNGSQNNDNENNIKNTLEQHRQQQQAFSDMSHVEYSRITKFFQEQPLEGYTLFSHRSAPNGFKVAIVLSELGFHYNTIFLDFNLGEHRAPEFVSVNPNARVPALIDHGMDNLSIWESGAILLHLVNKYYKETGNPLLWSDDLADQSQINAWLFFQTSGHAPMIGQALHFRYFHSQKIASAVERYTDEVRRVYGVVEMALAERREALVMELDTENAAAYSAGTTPMSQSRFFDYPVWLVGDKLTIADLAFVPWNNVVDRIGINIKIEFPEVYKWTKHMMRRPAVIKALRGE |  | 0.8445 |  | 
YBL071W-A_2 (protein, UniProt Q3E840 1-82, looked up) Diphthamide biosynthesis …: MSTYDEIEIEDMTFEPENQMFTYPCPCGDRFQIYLDDMFEGEKVAVCPSCSLMIDVVFDKEDLAEYYEEAGIHPPEPIAAAA |  |  |  | Ratio (Deletedscore / WTscore) (bait ABP1): 1.188
YBR177C_2 (protein, UniProt P38295 1-451, looked up) Medium-chain fatty acid ethyl …: MSEVSKWPAINPFHWGYNGTVSHIVGENGSIKLHLKDNKEQVDFDEFANKYVPTLKNGAQFKLSPYLFTGILQTLYLGAADFSKKFPVFYGREIVKFSDGGVCTADWLIDSWKKDYEFDQSTTSFDKKKFDKDEKATHPEGWPRLQPRTRYLKDNELEELREVDLPLVVILHGLAGGSHEPIIRSLAENLSRSGRFQVVVLNTRGCARSKITTRNLFTAYHTMDIREFLQREKQRHPDRKLYAVGCSFGATMLANYLGEEGDKSPLSAAATLCNPWDLLLSAIRMSQDWWSRTLFSKNIAQFLTRTVQVNMGELGVPNGSLPDHPPTVKNPSFYMFTPENLIKAKSFKSTREFDEVYTAPALGFPNAMEYYKAASSINRVDTIRVPTLVINSRDDPVVGPDQPYSIVEKNPRILYCRTDLGGHLAYLDKDNNSWATKAIAEFFTKFDELVV |  |  | 1.519 | 
YCR030C_2 (protein, UniProt P25623 1-870, looked up) Suppressor of yeast profilin …: MTEQRTKYADSILTTKSPYEATETIRIRLSQVKLLNKDFYLLFKELANLKRNYAQQLRKIIAENEDITKILNAQMIESNVLTPQEMSAFRFNSLGELRNVWDTVIEELKSDLKSSTEYYNTLDQQVVRELKESVENNTSWRESKDLHSKLSKNAASIEHYSKNNENSSHLEEARRQWDQQSPYLFELFETIDYNRLDTLKNCMLRFQTSFSDYLLNTTKECETVMTKFLAFEPQSEIDRFAKDASQYNFQLSSSSKEVVPNNASPASATGARPVSVSNGAANTEREKKSPQKDKRKSAFGNIGHRLASASSSLTHNDLMNNEFSDSTNNSSLKSKKSSHTLRSKVGSIFGRNKTKNKRQQQSSSNSHIQASITETPNNSSTRVSSTATSSIYQKQRRPTYSSSKSNNWTPGEASDTPPLPPHATPKNVDAPVTADTPPAQTFTPSEVPPSTPQQSSPPTAKEPDSSNLPKTVPISISQPPLQPQSKTKPLPVEPASPSISLPTATVDNQPSGQVDSRPLHIRAPALPPSRKQNFIHNRDSQLYDSLPNHGSGATPTSSSLSSIPQERPVSTLSSQITGELRELNPQATGSSTSLVGQSLFQHSSLDTSQFGLNASIAEVLNASFKDGMLQNSQLIGEIALNYLPNSVMNSPLPIGINLRINNGAKFEKVILNQAFIERVAPEEFKVNPSFIDSRTLGAIKYSIKEPIAPIVIHPVWRFESHQASVVLTVKMSPSLPDEISQIVIEDLVVFVNIDGANATSALSKPQGSFSKEKKRITWRFKEPVVLTRNGEGQRLIARFITDGLAHESAKGVITKFTISETDNVALPHSGAGSGITLTCQELDENNPFGGEWLDVNTKRTLTTGNYHGLA | 1.115 |  |  | 
YCR002C_2 (protein, UniProt P25342 1-322, looked up) Cell division control protein …: MDPLSSVQPASYVGFDTITNQIEHRLLKKGFQFNIMVVGQSGLGKSTLINTLFASHLIDSATGDDISALPVTKTTEMKISTHTLVEDRVRLNINVIDTPGFGDFIDNSKAWEPIVKYIKEQHSQYLRKELTAQRERFITDTRVHAILYFLQPNGKELSRLDVEALKRLTEIANVIPVIGKSDTLTLDERTEFRELIQNEFEKYNFKIYPYDSEELTDEELELNRSVRSIIPFAVVGSENEIEINGETFRGRKTRWSAINVEDINQCDFVYLREFLIRTHLQDLIETTSYIHYEGFRARQLIALKENANSRSSAHMSSNAIQR | 1.169 |  | 1.096 | Ratio (Deletedscore / WTscore) (bait HOF1): 0.2463

— publication PMC7954794, “Protein context shapes the specificity of SH3 domain-mediated interactions in vivo” (Nature Communications, 2021)
